Measured values: the DeepSol protein solubility set

Test: soluble on expression in E. coli; label from the status in PepcDB or PDB records

| Sequence | soluble on expression in E. coli |
| --- | --- |
| MHELFHPIFANGEEKAALQQLIIALDASGKRYFLRNEILHTFSQYCQQAQKPTYFYYSSSVGKLIQYTHEIVLAEDGTWFVVRPRIASQEVWRLTSDLAKFDSMSIDAFLDVSDRLVNAYEPNILEIDLNSFYEASPSISDPRNIGQGLAFLNRYLCSQIATDPQYWVELVYLALRGLQYDGINLMIGDAIPSGIHLAKQIHAAIKFLSALPPEEPYEKFYIELQKLGFEPGWGNTAQRILETITLLDKLIDSPQPAVLEAFVARVPAVFRVVLVSIHGWVAQEDVMGRDETLGQVIYVLEQARSLENKLQQEIKLAGLEVLGIQPHVIILTRLIPNCEGTYCNLRLEKLHNTENAWILRVPFGEFNPEITNNWISKFEIWPYLETFALDAEKQLLAQFQGKPNLIIGNYSDGNLVAFLLARRLKVTHCNIAHSLEKPKNLFSNLYWQDSEEKYHFSVQFTADLITMNAADFIITSSYQEIFGTPESIGQYESYKFFTMPHLYHVVDGIDLFNPKFNMVPPGVNEQVFFPYSQTADRDPNVSKHVHDLLEHHHHHH | not soluble |
| MGSDKIHHHHHHMERSWTINGRFLAQPLTGVQRYAFEIVRALDELIVNQPLLASRLKIELLVPRDAKVPSLRAISTRAIAIAPMHGHLWEQAALAAHVRGGLLSFCNTGPLSVRKQILCIHDVNTRTYPQSYSLPFRLLYRTLLPALGRRVAAVATVSRYSAGELVRHRICGPDKITVIPNGHEHAASWKPRHSQRTRAVAGRDTIVVIGSAIAHKNTGLIIGMAERLAAVGLRIAVVGMSDARVYRTSGRKESASNVTWLGRLSDEELAALLQDCLCLAFPSFIEGFGLPPLEAMAIGCPIVVSNRASLPEICGEAALYASPNDAEAWFDRFMRVRNMPDVRDEMIGIGRMQASNFQWKASASRYLDIMAVLDGMSKPSGGPVAVSIA | not soluble |
| MGSDKIHHHHHHMFYFTVNNPQDPLSTEIVETNRRDLAFWHRLRPKDDDDLATAINKICVRTGLSRKLIAACLFSICFLPYLPNFHKLVEKLGHLDMARINAITKAGEKVPSEKRELFDAYLVDYLTPRAEAQCLPQASSISAMMRKFIAQHCPDDKASSATNDGSIRYRRNNKGGISITVDATASEVTEIKAALEQMSKDKDCTPGTSLLHIIRGLPTKVVLNTYGTKDSPEYLEGGTWLSKEQSEFWKTRTTSSRDMDAAHFSYTTAYAPTREMRVYIKGLRTTCSVPGCSVAVENCQLDHIIPWGEGGPTTPWNIHPLCVFHHIQKTEGRLQCYPLPDGTVLFLVDGIPVFSIPDGPLSKSNKTWGTKFGKYMERRIAA | not soluble |
| MGSDKIHHHHHHMCSEGLRERYVNPYTDFAFKLLFGTDLNKEILIGFLNALFDGKQVIEDVIYLNTEHLGSKETDRRAVFDVYCENEKGEKILIEMQRGEQQFFKDRSIYYATYPIREQAIKGEIWNYELKAVYVIGILNFALDDVSSSGFRHEVKLMDTTTHEVFFDKLTFVYLEMPKFHKTEQELDTLFDKWMFVLKNLARLMERPTSLQERVFNRLFEAAEIAQFSKENLYAYEESLKVYRDWNNVINTAIQKGIAEGEWMKAKAIAGNLKNAGLSIAEIAKVTGLSEDEINSL | not soluble |
| MGSDKIHHHHHHMDSLLMNRRKFLYQFKNVRWAKGRRETYLCYVVKRRDSATSFSLDFGYLRNKNGCHVELLFLRYISDWDLDPGRCYRVTWFTSWSPCYDCARHVADFLRGNPNLSLRIFTARLYFCEDRKAEPEGLRRLHRAGVQIAIMTFKDYFYCWNTFVENHERTFKAWEGLHENSVRLSRQLRRILLPLYEVDDLRDAFRTLGL | not soluble |
| MSEELSGVIIVLHKELSCRKEITDLQEISIALPDLMLSPKSKIVSDPASSKIDLNDRTTCSAEPNLFFVIFLSKNLNFSSKVFLSAVNNKSFSIQTRIT | not soluble |
| MNNPKAISKQTLLRLPSYLSYLKSLPKQDGEYVSATMIASALGLNDVQVRKDLACVSKKGRPKLGYVAEELIRDIESFLGYDSLNDAIIVGAGRLGGALLSYEGFKEYGLNIVAAFDIDESKIGTEICGRKIFPLDKMKELCRRMKIRIGIITVPADSAQKVCDMLVDSGIYAIWNFAPVHLKVPDNILVQQENMAASLAVLSAHLAEAIKNNGIGKGDEENDENSE | not soluble |
| MGSDKIHHHHHHMNVLASKDFRTEKRPLPFECIALVLQGGGALGAYQAGVYEALAEADIHPDWVAGVSIGAINSAIIAGNEPTERVPKLRAFWREISANPLLDWAAASPALAPTGTLPRLLFNQFSAACALVAGAPGFFSLRQPVPWLQADGSLEGTSFYETKHLKSTLERLVDFDRINAGRMRFSVGAVNVRSGNFVYFDNDQHTIRPEHVMASGSLPPGFPAVEIDGEFYWDGGLISNTPLQWVVEHGARQDTLAFQVDLWSARGEFPRNLSEVATRQKEIQYASRSRAHTDQFKQYQRARHTLASLLSKLPPELLDSEEATALSSIADHKVYKLVHLTYRSKQHEGHSKDHEFSRLSMEEHWRAGYFDAVRTLRHPEALLRPDNLEGVSTYDLAEDGRE | not soluble |
| MGSDKIHHHHHHMAPRKVIITCAVTGSVHTPSMSPYLPVTPDQIASDAIAAAEAGASILHLHARDPKDGRPTADPDVFMQFLPRIKQATDAVINITTGGSSLMTLDQRLAAPLRAEPEMCSLNMGSMNFALFPMLDKPREWQHEWEPKLLEATRDTIFKNTFADMEGVLERLGKGCGTRFEFECYDVGHLYSLAHFRDRGLVSGPLFIQFVLGILGGIGADPDNLVHMKRIADKLFGDSYQFSVLAAGRQQMPLISIAAAMGGNVRVGLEDSLYDGRQLAKSNADQVRRIRGILDGLSLEVATPAEAREMLALKGGDRVAF | not soluble |
| MGSDKIHHHHHHMHMAAKRGRTAQRLELGLQLRQLRENCDGGDRGVGLTRKQAVQGLRISEASLQRIETGSLNFRFVGDLRKLLTKYGVTDEDVVDSLISLNRESNQQDWLTQYRGLMPSGMPGFVGLEPEAHAMKAYHPTLVYGLLQTERYARAVHEVQKPIEEYTTEFIRSSVELRMKRQEVLTRESPVKLHVILGEAALRYPIGGAEVMREQCARIEELSGWDHITVQVLPFRPSYRSINDFAILDFGNNLPPRVQADSAWGSVSTSDKPREVDRFSRRFDTMTASALPPEDTPEFLHRLEREL | not soluble |
| QYQDYASFFRNNKSVTHLIVPSNFIGAGVSKYKDWKRSNIPYTQLDMAVVQNRPAGSLRRFVVLVVGETTRAANWGLNGYSRQTTPLLAARGDEIVNFPQVRSCGTSTAHSLPCMFSTFDRTDYDEIKAEHQDNLLDIVQRAGVEVTWLENDSGCKGVCGKVPNTDVTSLNLPEYCRNGECLDNILLTKFDEVLNKNDKDAVLILHTIGSHGPTYYERYTEAERKFTPTCDTNEINKCTRATLVNTYDNTVLYVDQFIDKVIRKLENRDDLESVVHYVSDHGESLGENG | not soluble |
| MGSSHHHHHHGKTIFVIVPTNEEQVAFLEALAKQDELNFDWQNPPTEPGQPVVILIPSDMVEWFLEMLKAKGIPFTVYVEEGGSENLYFQGGGGGGAASLGDFGQEYQAIMESAGKGFGMLYRDMTAPPASYQWECVEDLSLQYSVAYASLTEPYTVNVLTSMITVTRTESTPGVSYNLIGIACTYDGNCGDLKRGNLLTFSLRKDLIIIVTGSVLSNGITNFLPVSYYVVQLASSCSSANIANVTRPFSVGASSVWMQLWQ | not soluble |
| MGSDKIHHHHHHMSATSLYRLFAPQIEFLSPAEKQVFFYIDNHISTIEKMSLTSLAESTNVSTTTVIRMCHKLKLSGFSELKFLLHSDKTETKPLSKDYSSTFLEKIRLGIEQLPKKEIEQVATRIAYAPKIYIACLGMTKTLGEYFSKSLVTSKKNVVFTYDSFIIDILPQIVERDDLIIIISESGGTENTLSLAEHLKYNLSNVIAIVNNPNAQISQYVETIIYASSEEFDEDSFKHHHAPLLIVIDLILNIFEQQKKLI | not soluble |
| SLGRIKAQAFGFDQTFQSYRKDDFVMAFFKDPNVIPNLKLLSDSSGQWIILGTEVKKIEAINVPCTQLSMSFFHRLYDEDIVRDSGHIVKCLDSFCDPFLISDELRRVLLVEDSEKYEIFSQPDREEFLFCLFKHLCLGGALCQYEDVISPYLETTKLIYKDLVSVRKNPQTKKIQITSSVFKVSAYDSAGMCYPSAKNHEQTFSYFIVDPIRRHLHVLYHCYGVGDMS | soluble |
| MSLDTQSDYVVVGTGSAGAVVASRLSTDPATTVVALEAGPRDKNRFIGVPAAFSKLFRSEIDWDYLTEPQPELDGREIYWPRGKVLGGSSSMNAMMWVRGFASDYDEWAARAGPRWSYADVLGYFRRIENVTAAWHFVSGDDSGVTGPLHISRQRSPRSVTAAWLAAARECGFAAARPNSPRPEGFCETVVTQRRGARFSTADAYLKPAMRRKNLRVLTGATATRVVIDGDRAVGVEYQSDGQTRIVYARREVVLCAGAVNSPQLLMLSGIGDRDHLAEHDIDTVYHAPEVGCNLLDHLVTVLGFDVEKDSLFAAEKPGQLISYLLRRRGMLTSNVGEAYGFVRSRPELKLPDLELIFAPAPFYDEALVPPAGHGVVFGPILVAPQSRGQITLRSADPHAKPVIEPRYLSDLGGVDRAAMMAGLRICARIAQARPLRDLLGSIARPRNSTELDEATLELALATCSHTLYHPMGTCRMGSDEASVVDPQLRVRGVDGLRVADASVMPSTVRGHTHAPSVLIGEKAADLIRSEGHHHHHH | soluble |
| MSLNNQANKLRNLMSQNGTKKSQNTHFIAITSGKGGVGKSTISANLANVLANNGYKVGLFDADIGLANLDVILNVRIQKNLLHVLRGECSLEDILIEVKPNLWLIPGESGDEILKYNDKNIYERFLNQASILDELDFLIIDTGAGIGGNILNFLEMADEVIVVTVPDPAAITDAYATIKTTSKTKENLLMLFNVVKNENEALKVFENIKKVADANIKNPLNLEFLGHLSASKDVSGSIKKRTLFSDENTASSDEIKALASKLLYRLERKVLDNVSNRSFSSFFRKIIEREGHHHHHH | soluble |
| GPGMATEEMKKLATVMAIGTANPPNCYYQADFPDFYFRVTNSDHLINLKQKFKRLCENSRIEKRYLHVTEEILKENPNIAAYEATSLNVRHKMQVKGVAELGKEAALKAIKEWGQPKSKITHLIVCCLAGVDMPGADYQLTKLLDLDPSVKRFMFYHLGCYAGGTVLRLAKDIAENNKGARVLIVCSEMTTTCFRGPSETHLDSMIGQALFGDGAAAVIVGADPDLTVERPIFELVSTAQTIVPESHGAIEGHLLESGLSFHLYKTVPTLISNNIKTCLSDAFTPLNISDWNSLFWIAHPGGPAILDQVTAKVGLEKEKLKVTRQVLKDYGNMSSATVFFIMDEMRKKSLENGQATTGEGLEWGVLFGFGPGITVETVVLRSVPVIS | soluble |
| MAHHHHHHMRPVIVMLLHEEQDTGAYMIKYLVTRGMDFVMFRCWEERVASLVPKAAGETIRCLPVANKPHHYVPCLVNSTAAPSTESESLVTTSTSLAPVSSNVAEDCRIRAVASFGGSMSVNDELSYFESIRSLMRSCLEKRIPVIGHCLGGQLLSSALGGRIVLSENIEVGWYEMVVEEAEDVKDWFGGRKRFDAFHIHTDSFTIPQGARRIVTGAYCANQAFQVGDQFALGMQFHPEVDEDKVRSLISSQFPTLYTEEELADILRKGAEGAKTPDGRPLVSPGSMTRECIEKCLREGRIEQNRPIADSIYDTWCSGFLF | not soluble |
| METHEKIRLMRELNKWSQEDMAEKLAMSAGGYAKIERGETQLNIPRLEQLAQIFKIDMWDLLKSGGGGMVFQINEGDSGGDIALYASGDVSMKIEFLKMELKHCKEMLEQKDKEIELLRKLTETV | not soluble |
| MPRYIVRPFHLLNLPTVVISEVLNHLKNIDICILRTTSRKIRTIGKLSARRKQTYLVGHRRLDLTINARFGKFKVESGARDGTVALYAGYDINRVLDITSDFFDYLDIYIYLYIIDNHSDKDAKKLVEVIVTKGIYVHYLRFDGEQISHELFREMLKCDVNELRIHLRTQHTVELSDIDLMVSCKCVALTRITIPSDYLNVLLKKWQANRNLTFFSASGMALTLDKSIILEGTNSEQGSEEYNFYIKCNNRKTALLKILHNSFRLGNVY | not soluble |
